Laboratory results: patent US20210188980A1 (SHANGHAI EPIMAB BIOTHERAPEUTICS, published 2021)
Changes are numbered by the printed parent chain.

B1: mAb715 (antibody, V domains shown)
VH: EVMLVESGGGLLKPGGSLKLSCAASGFTFSSYAMSWVRQTPEKRLEWVATISGGGRDTYYPDSVKGRFTISRDNAKNTLYLQMTSLRSEDTAFYYCAGQGGTYLFASWGQGTLVTVSA
VL: DIVMTQSHKFMSTSVGDSVTITCKASQDVNTAVAWYQQKPGQPPKVLIYWASTRHTGVPDRFTGSGSGTDYTLTISSVQAEDLALYYCQQHYTTPYTFGGGTKLEIK
notes: murine hybridoma anti-PD-1 mAb
B2: mAb709 (antibody, V domains shown)
VH: B1 VH with M3K, L12V, S31F, A33T, Q82H, T84S, F93L, T102N, S107Y
VL: B1 VL with A32V, P43S, P44L, Y49S, D60A, K103Q
notes: as for B1
B3: mAb719 (antibody, V domains shown)
VH: EVKLVESGGGLVKPGGSLKLSCTASGFSFSSHLMSWVRQTPEKRLEWVAAISGGGADTYYPDSVKGRFTISRDNAKNTLYLQMRSLRSEDTALYYCTRQILAFDSWGQGTTLTVSS
VL: DIQMNQSPSSLSVSLGDTITITCHASQNIYVWLNWYQQKPGNIPKLLIYKASNLHTGVPSRFSGGGSGTGFTLTISSLQPEDIATYYCQQGQSYPWTFGGGTKLEIK
notes: as for B1
B4: mAb718 (antibody, V domains shown)
VH: QVQLQQSGAELVRPGASVTLSCKASGYTFTDYEMHWAKQTPVHGLEWIGVIEPESGGTVYNQKFKGKAKLTADKSSRTAYMELRSLTSEDSAVYYCTREGFNSDHYFDYWGQGTTLTVSS
VL: DVLMTQTPLSLPVSLGDQASISCRSSQNIVHSNGNTYLEWYLQKPGQSPKLLIYKVFNRFSGVPDRFSGSGSGTDFTLKISRVEAEDLGVYYCFQGSHVPYTFGGGTKLEIK
notes: as for B1
B5: mAb703 (antibody, V domains shown)
VH: DVQLQESGPGLVKPSQSLSLTCSVTGYSITTGYYWNWIRQFPGNKLEWMGYMSYDGNNNYNPSLKNRISITRDTSKNQFLLRLNSVTTEDTATYFCARDRGTTILGGTMDYWGQGTSVTVS
VL: SIVMTQTPKFLFVSAGDRVTIACKASQSVSNDVAWYQQKPGQSPKLLIYYAFYRYTGVPDRFTGSGYGTDFTFTISTVQAEDLAVYFCQQDYSSPWTFGGGTKLEIK
notes: as for B1
B6: mAb714 (antibody, V domains shown)
VH: EVHLQQSGPELVKPGASVKIFCKASGYTFTDNNVEWVKQSHGKSLEWIGDINPNNGDTLYSQYFKDKATLTVDKSSTTAYMELRSLTSEDTGLYYCARGKSDQFDYWGQGTTLTVSS
VL: DIQMTQSPASQSASLGESVTITCLASQTIGTWLAWYQQKPGKSPQLLIYAATSLADGVPSRFSGSGSGTKFSFKISSLQGEDFVSYYCQQLYSSPWTFGGGTKLEIK
notes: as for B1
B7: mAb701 (antibody, V domains shown)
VH: EVLLVESGGGLVKPGGSLKLSCAASGFTFSSYMMSWIRQTPERRLEWVASMSGGGRDTYYPDSVKGRFTISRDNAKNTLYLQMSSLRSEDTALYYCARRGTYAMDYWGQGTSVTVSS
VL: B6 VL with A34T, G80A, S94T
notes: as for B1
B8: mAb713 (antibody, V domains shown)
VH: EVKLVESGGGLVKPGGSLELSCAASGFTSSDYGMHWVRQAPEKGLEWVAYISSGSYTIYYADTVKGRFTISRDNAKNTLFLQMTSLRSEDTAMYYCAKRGGSSHVNVMDYWGQGTSVTVSS
VL: DIQMTQSSSYLSVSLGGRVTITCKASDHINNWLAWYQQKPGNAPRLLISGATSLETGVPSRFSGSGSGKDYTLSITSLQTEDVATYYCQQYWSPPYTFGGGTKLEIK
notes: as for B1

What follows are binders tested against T1, cynomolgus PD-1 expressed on CHO-K1 cells (cynomolgus monkey, UniProt B0LAJ3 25-288) (assay: FACS, CHO-K1/cynoPD-1 cells).
T1 construct: also called CHO-K1/cynoPD-1; CHO-K1-cynoPD-1
Protocol: (§1) CHO-K1/huPD-1 or CHO-K1/cynoPD-1 cells, described above, were charged at 2×10⁴ cell per well into 96-well assay round-bottomed assay plates (Cat. No. 3799; Corning) and stained with purified anti-PD-1 antibodies. PD-1 antibodies were detected with AlexaFluor® Donkey anti-Mouse IgG (H+L) Highly Cross-Adsorbed Secondary Antibody, (Cat. No. A21202; Invitrogen), and cell fluorescence was monitored using a flow cytometer. The data were processed by GraphPad software, and EC50 values were calculated.

Row | EC50 | Binder
1 | 0.9 nM | B1
2 | 0.2 nM | B2
3 | 2.1 nM | B3
4 | 4.2 nM | B4
5 | 0.7 nM | B5
6 | 0.8 nM | B6
7 | 3.8 nM | B7
8 | 0.9 nM | B8

These binders were tested against T2, human PD-1 ECD/Fc fusion protein (human) (assay: SPR Biacore, mAb captured, huPD-1/Fc analyte).
T2 construct: also called huPD-1/Fc; HuPD-1 ECD/Fc
Protocol: The binding kinetics of purified antibodies were measured by surface plasmon resonance using a Biacore […] instrument (GE Healthcare) using standard procedures. Briefly, goat anti-mouse IgG Fc polyclonal antibody (Genway) was directly immobilized across a biosensor chip, and antibodies samples were injected over reaction matrices at a flow rate of 5 μl/min. The association and dissociation rate constants, kₒₙ(M⁻¹ s⁻¹) and koff (s⁻¹) respectively, were determined with a continuous flow rate of 30 μl/min. Rate constants were derived by making kinetic binding measurements at five different concentrations of human PD-1/Fc protein. The equilibrium dissociation constant KD (M) of the reaction between antibodies and related target proteins was then calculated from the kinetic rate constants using the formula KD=koff/kₒₙ.

Row | Kd | koff | kon | Binder
9 | 1.5 nM | 0.000237 s⁻¹ | 158000 M⁻¹ s⁻¹ | B1
10 | 0.939 nM | 0.000104 s⁻¹ | 111000 M⁻¹ s⁻¹ | B2
11 | 3 nM | 0.000215 s⁻¹ | 71500 M⁻¹ s⁻¹ | B3
12 | 4.84 nM | 0.000283 s⁻¹ | 58400 M⁻¹ s⁻¹ | B4
13 | 2.45 nM | 0.00085 s⁻¹ | 347000 M⁻¹ s⁻¹ | B5
14 | 2.11 nM | 0.00021 s⁻¹ | 99400 M⁻¹ s⁻¹ | B6
15 | 6.81 nM | 0.000512 s⁻¹ | 75200 M⁻¹ s⁻¹ | B7
16 | 1.96 nM | 0.000285 s⁻¹ | 145000 M⁻¹ s⁻¹ | B8

Each binder was assayed against T2, human PD-1 ECD/Fc fusion protein (assay: RBA ELISA on huPD-1/Fc; competitor biotin-huPD-L1/Fc).
Protocol: (§2) Supernatants displaying PD-1 specific activity were tested for the ability to block PD-1 binding to its ligands PD-L1 and PD-L2 using immobilized human PD-1 ECD/Fc as a target and PD-L1/Fc and PD-L2/Fc fusion proteins, prepared in the same manner as the PD-1 ECD/Fc binding proteins described in Example 1.3 above. To determine the relative potency of the antibody-containing supernatants, their ability to inhibit the binding of a human PD-1 ligand (PD-L1 or PD-L2) to human PD-1 protein was evaluated. ELISA plates were coated with 100 μl of 50 ng/m of huPD-1/Fc (i.e., the extracellular domain of PD-1 grafted onto the N-terminus of a human Fc region, recovered as a homodimer) in PBS and incubated overnight at 4° C. Plates were washed four times in washing buffer (PBS containing 0.05% Tween 20) and blocked for 1 hour at 37° C. with 200 μl per well of blocking buffer (1% BSA in PBS containing 0.05% Tween 20). After blocking buffer was removed, hybridoma supernatant (50 μl) was added to the wells, mixed with either 50 μl biotinylated human PD-L1/Fc ([…] final concentration) in blocking buffer or 50 μl biotinylated human PD-L2/Fc (final concentration 50 μg/ml) in blocking buffer, then incubated at 37° C. for 1 hour. Signal was developed by adding streptavidin-HRP (Sigma, Cat. No. S2468) (100 μl/well of streptavidin-HRP at 1:5000 dilution) and incubating for 40 minutes at 37° C. and washed four times in washing buffer. 100 μl of TMB solution were added per well. Following color development, the reaction was stopped with 1 Normal HCl and absorbance at 450 nm was measured. […]

Row | IC50 | TOP inhibition (%) | Binder
17 | 2.91 nM | 86.9% | B1
18 | 0.8 nM | 91.6% | B2
19 | 3.39 nM | 96.5% | B3
20 | 4.19 nM | 96.6% | B4
21 | 3 nM | 96% | B5
22 | 2.95 nM | 92.3% | B6
23 | 5.32 nM | 87.1% | B7
24 | 2.95 nM | 94.4% | B8

What follows are binders tested against T3, human PD-1 expressed on cells (human, UniProt Q15116 25-288) (assay: FACS, CHO-K1/huPD-1 cells).
T3 construct: whole, on cells; also called CHO-K1/huPD-1; CHO-K1-hPD-1 cells
Protocol: as §1

Row | EC50 | Binder
25 | 1.1 nM | B1
26 | 0.2 nM | B2
27 | 1.7 nM | B3
28 | 3.2 nM | B4
29 | 0.5 nM | B5
30 | 1.6 nM | B6
31 | 3 nM | B7
32 | 1.1 nM | B8

Each binder was assayed against T2, human PD-1 ECD/Fc fusion protein (assay: RBA ELISA on huPD-1/Fc; competitor biotin-huPD-L2/Fc).
Protocol: as §2

Row | IC50 | TOP inhibition (%) | Binder
33 | 2.17 nM | 88% | B1
34 | 0.52 nM | 93.7% | B2
35 | 1.85 nM | 95.2% | B3
36 | 1.91 nM | 96.6% | B4
37 | 2.02 nM | 95.7% | B5
38 | 2.24 nM | 93.1% | B6
39 | 2.67 nM | 94.1% | B7
40 | 2.52 nM | 93.5% | B8

These binders were tested against T2, human PD-1 ECD/Fc fusion protein (assay: ELISA, coated huPD-1/Fc).
Protocol: ELISA plates were incubated overnight at 4° C. with 50 μl of the synthetic human PD-1 ECD/Fc fusion protein targets described above diluted in PBS buffer, pH 7.4, at 1 μg/ml. Plates were washed four times in washing buffer (PBS containing 0.05% Tween 20), and blocked for 1 hour at 37° C. with 200 μl per well blocking buffer (1% BSA in PBS containing 0.05% Tween 20). After blocking buffer was removed, hybridoma supernatant (or later diluted purified mAbs) were added to the wells at 100 μl per well and incubated at 37° C. for 1 hour. The wells were washed four times with washing buffer, and anti-mouse HRP (Sigma) for mouse anti-human PD-1 antibody characterization were diluted 1:5000 and added to the wells at 100 μl per well. The plates were incubated for 1 hour at 37° C. and washed four times in washing buffer. 100 μl of tetramethylbenzidine (TMB) chromogenic solution were added per well. Following color development, the reaction was stopped with 1 Normal HCl and absorbance at 450 nm was measured on a SpectraMax M5e plate reader (Molecular Devices; San Jose, Calif., US).
A binding ELISA was performed in the same way as described in Example 1.3 above. Each purified antibody was 10-fold serially diluted and duplicated. After blocking of the 96-well assay plate with wells containing immobilized PD-1 ECD/Fc fusion protein targets, the purified antibody samples with diluted concentrations were added to wells of assay plates. The HRP-linked anti-mouse IgG antibody (A0168, Sigma) and TMB reagent were used to detect and develop the ELISA signal, which were read on a SpectraMax® M5e plate reader at wavelength of 450 nm. Curves were fitted using GraphPad software, and EC50 were calculated. Similarly, a receptor blocking assay (RBA) was also performed as described in Example 1.5 with titrated, purified antibodies, and top blocking percentages and IC50 values were determined.

Row | EC50 | Binder
41 | 0.04 nM | B1
42 | 0.01 nM | B2
43 | 0.02 nM | B3
44 | 0.02 nM | B4
45 | 0.05 nM | B5
46 | 0.05 nM | B6
47 | 0.1 nM | B7
48 | 0.08 nM | B8
